Test results from patent publication US8614103B2, “Compositions and methods for treating sphingosine-1-phosphate (S1P) related ocular diseases and conditions” (Lpath, Inc., priority 2006, dated 2013).

Key:
[1] = test system: ovarian cancer (OVCAR3) cells; experiment: S1P-induced IL-8 release; format: cell-based, human; conditions: 1 uM S1P; 22 hours
Description: FIG. 12 has two panels, A and B, that show data from in vitro cell assays performed using several humanized monoclonal antibody variants. […] As described in Example 16, below, SKOV3 cells were treated for 48 hr. with 500 nM Taxol (Tax) in the presence or absence of 500 nM S1P with huMAbHCLC3 (309), huMAbHCLC5 (308), muMAb S1P (muMAb), or non-specific IgG1 (NS) at a concentration of 1 μg/mL. Values represent means±SEM (n=3) with triplicates run for each data point. “NT” means not treated, and “Veh” stans for vehicle only. […] In the experiments described in detail in Example 16, below, 100,000 OVCAR3 cells/well were starved overnight and 1 uM S1P was added to the culture media alone or pre-incubated with 1 ug/ml of non-specific antibody (NS), pATH201+pATH309 (LC3), pATH201+pATH308 (LC5), pATH207+pATH309 (cysLC3), pATH207+pATH308 (cysLC5), and 0.1 ug/ml (M0.1), 1 ug/ml (M1) or 10 ug/ml (M10) of anti-S1P murine antibody. After 22 hours of incubation, cell supernatants were collected and IL-8 secretion was measured by ELISA using an R&D system Quantikine human CXCL8/IL-8 kit. In the figure “NT” refers to non-treated cells.
In parallel, all the variants were tested for their effects on S1P-induced cytokine release from cancer cells. S1P is known to elicit significant release of IL-8 into the cell-conditioned media from cancer cells.

HUVECs = experiment: HUVEC migration, Matrigel chemoinvasion assay; format: cell-based, human; conditions: co-incubation with S1P
Description: FIG. 5 has two panels, A and B. In panel A, S1P is shown to promote neovascularization through induction of HUVECs tube formation and migration, which is reduced by SPHINGOMAB. […] The number of cells that migrated to the Matrigel membrane were counted in five independent fields.
Experiments were performed as described by Visentin et al. (Cancer Cell 2006 March; 9(3):225-38).

B1: LT1002: murine monoclonal antibody to S1P, IgG1 kappa, hybridoma clone 306D326.26 (antibody, listed as Mus sp., V domains shown)
VH: QAHLQQSDAELVKPGASVKISCKVSGFIFIDHTIHWMKQRPEQGLEWIGCISPRHDITKYNEMFRGKATLTADKSSTTAYIQVNSLTFEDSAVYFCARGGFYGSTIWFDFWGQGTTLTVS
VL: ETTVTQSPASLSMAIGEKVTIRCITTTDIDDDMNWFQQKPGEPPNLLISEGNILRPGVPSRFSSSGYGTDFLFTIENMLSEDVADYYCLQSDNLPFTFGSGTKLEIK
[1]
  reduction of S1P-induced IL-8 release: reduced IL-8 release from ovarian cancer cells in a concentration-dependent manner
HUVECs
  effect on S1P-promoted HUVEC migration and BV formation: neutralize these effects of S1P
